test: label from the status in PepcDB records

Sequence | protein production
MVEIEYRKTRIKLGDTDLVYEPAEDSFLLADAALKDAKPGMRILEIGTGSGFVSSVLLTNLKEIYLVATEINPHAARCAKMNGVKVIRTDLFKGIKSKNPENLFDLILFNPPYLPTSEEEKVPGWLNYAFDGGISGRDTLDRFLDEVRDYLKLGGEILVLISSITGLDAVKAKMEKLGFEVEVVARKKVSFEELMVVKGKLL | failed
MVEIIIPVGPNDKLEWVKRSVNSALLQSVDKVIIYDNSERADIYNFFQELKDKLVYIKDKRMTKVNMARLRNKMLSLASDKYVIMLDSDVVIPKNYSNNIINKLERGVAYTWIHYAYSEEEIEKPLSISENNPNLGCAGLNLEVIKRIGYFDERYERDEDVWLYAKLKKTGYKVEPAEGRCLHLNKVHARLNLSSSVAEARRNLWRSKYDIMLMFDGLTDFTFLTGYSYYGSYYILAILSVIFHPLTFLYLPLIGYGVYYYKGPKKYLLNLIPGLSLAISFPYGLGYNLIQKLK | failed
MVELEKEKIVWIAIILLIIFLVWETLKDLIAPIVFGMAASYIAYPFHIKLSKKVGKRNSVLILSGILSIFSLIFFVGVTLWITDTLKNLYNYLDAFFSWLSTLNVPGFLSSLFDALATSFPEKLRSILLQYTLSLPKLALQLIVFLAVFYATLLNADFLAKEIYELLPLTNRELGEKMIEKVKDTVDAILKTWLFFSVVKGIFLALGFYLFKISNVAGSIAAGVLCIVLELLPVVGGWIMWLAGAIILLRRSMLLAIIFAIYGIITISPIPDYFLKPKFAKERAKVSSVVALVGIFGGWIAFGAVGIILGPIAIGLLLALIDAWREIGTKQPSKAHRSQDA | failed
MVEQRNRGRPAVPDAVVRESIVGAAQRLLSSGGAAAMTMEGVASEAGIAKKTLYRFASGRADLIGLLVESWIAPIFPGFEADPQDAAAALERIVYDIAQAVLSREAVSLFRMLASDADLRNRFLPAYNANGIERSRRELARWLDQQASAGRLPLPIPAERVADLLLSAVIAEPLRQITLGLREPLPAWDIAPRVADAVRLIAPGRER | not failed
MVFFSVVVPTYNRRPILEKCLRALEQQQISAETAIAGYEVVVVDDGSTDGTVDWLKAQASEFPHVRLFEQDHQGPARARNLGVQQAQGDTIIFIDSDLVVTPPFLQAHATGLEKGRQRLGSDRCFTYGAVINTCNFDNPTAEPFKVTDFSNAYFATGNVAIARHWLETAGLFDTAFQLYGWEDLELGVRLKNLGLKLIRCPEAVGYHWHPPFSLEQIPKLIDQESQRGRMGVLFYQKHPTWEVRLMIQMTWLHRLLWGTLSLGGFLNERTLRPLLAWLLKRDRPQLALEIARIFLNWNNVRSVYAAYRESQGLASSLEHHHHHH | not failed
MVFVWFIVAAIVTILTAIKLSNYADTIGEKSTLGGMLVGTIFLAGATSLPEITTTVSAIVLNNPDLAVGNVLGSNMFNLLILATLDLYFRRAQLFRGADTSHFFTASIGLLLAMVTLIAITLRLDVTLLGIGIDMLVLIVVYAFGMKLLSAVRNDPVPESQTIDQEDNRPVKKDVSLRHAMIGFAISAIVIMGAGTLLTVTGDEIAVVTGLGSSFVGSFLIAATTSLPEGVSVFVALRLKNINLALGSVLGSNLFNFLILGVSDILYRPGSIIAAISPVHQLTAAAVGILCLMTLYALLRPAEQSKRMYLMPSLVLIVFYFFSSYLIFVQ | failed
MVGADLLCGSAWVPALWLNLCNLGVVVTLWQLLSRLPRMHRRMRSPHGVLSVFAACAAAAMVAASMAAVMAAPWFEQSLRATWLAWFSEQFSTGVLVLPVLLTAPSVRALVRGGAQPIRLAPLLVLLASLAFSIAFGGPGAIAFPIAALLWCAWTYSPFLVSLLTLTAGSTLIVAVAQNLMHFSVPQSEPGVTTLMSARLGIAMLVLGPLVVACVSQANRSLMARLAHQATVDHLTGVLTRSAFTRRANALLESRQQHAQALPLTLMMLDIDHFKSINDAHGHAVGDQVLRQFASTLQDQLHNDELIARLGGEEFVVILPGLAPERANFTAERLRRAIQDLHVTQADQRLQITVSIGVAGCDADMPAPSLDELLASADQALYRAKARGRNRVEQAEAQRLVI | failed
MVGGGSKHVGEGSKPRATKDDAYAYLRAVRAKFHNDSKKYDDFVAVMTNFKARRIDRDGCIKEVEQLLKGHRDLISGFNAFLPKCLEIKNYYFGAGEDLEVVYTAKRKLLARSVTKRSSSSSSSSSVYFLFRSCEII | failed
MVGGGTVKKDLKKAIQYYVKACELNEMFGCLSLVSNSQINKQKLFQYLSKACELNSGNGCRFLGDFYENGKYVKKDLRKAAQYYSKACGLNDQDGCLILGYKQYAGKGVVKNEKQAVKTFEKACRLGSEDACGILNNY | failed
MVGNKVKSFMLPIISYAVPTFVLVYPSFFVSWLSESMHLAYWEVFAIVALPFLGRIIGSFIYQVFKNSVISYCFPFLGFLVILQNFLGALIFVRFLVGVIFGLLTSYAVESAVKSGRNVLVGFTTAGWPIGWVISYVAYVLLKNWNVINISGILIMLLALFELNGKEFGERSKISVSFPRLTSILIYVSALTPAFILQVMPSFLEVIKLTWLILPSYLLSIPTYVLLPIISEKVGIRKVLVISSIIVILSCVITFLLLPMMVIVFTSIGLGILGITPKYLAIRGEDPKRMGLALNIGSVMGLILPVVYGLMPFSSEFLLSILMVLMILI | failed
MVHASVDIEVQFAIAVVKTLILVLGGIVTYLAYSAYQRTGDETLFQLSVGLALVGVGVLLGGFTFELLDVSLGVGVLIESLFVLAGLSVIAYSLKK | failed
MVKAYQRYDAATSFGVISSVDSNIAYDSTGKYVLAPALEKVGIWHVRQGVCSKTLTPSSSRGGPSLAVTSIASSASSLVAVGYADGSIRIWDTEKGTCEVNFNSHKGAVTALRYNKVGSMLASGSKDNDIILWDVVGESGLFRLRGHRDQVTDLVFLDGGKKLVSSSKDKFLRVWDLETQHCMQIVSGHHSEVWSVDTDPEERYVVTGSADQELRFYAVKEYSSNGSLVSDSNANEIKASEEHSTENKWEILKLFGEIQRQTKDRVARVRFNVSGKLLACQMAGKTIEIFRVLDEAEAKQKAKRRLRRKEKKSSKVGDENSTANGEASAKIELADAVSSPTVLDVFKLLQVIRAGRKISSFSFCPTAPKESLGTLALSLNNNSLEFYSLKSSENAKTVTIEHQGHRSDVRSVTLSEDNTLLMSTSHSEVKIWNPSTGSCLRTIDSGYGLCSLIVPQNKYGIVGTKSGVLEIIDIGSATKVEEVKAHGGTIWSITPIPNDSGFVTVSADHEVKFWEYQVKQKSGKATKKLTVSNVKSMKMNDDVLAVAISPDAKHIAVALLDSTVKVFYMDSLKFYLSLYGHKLPVMCIDISSDGELIVTGSQDKNLKIWGLDFGDCHKSIFAHGDSVMGVKFVRNTHYLFSIGKDRLVKYWDADKFEHLLTLEGHHAEIWCLAISNRGDFLVTGSHDRSMRRWDRSEEPFFLEEEKEKRLEELFESEIDNAADDRHGPMEEIPEEGVAALAGKKTIDVLSAADSIIDALEVAEDETKRHAAYEEEKTKGKVPEYLPNAVMFGLSPSEYVLRAISNVRTNDLEQTLLALPFSDSLKFLCYMKDWSLIPEKVELVSRIATIILQTHHNQLVTTPSARPILSVLRDILYSEIKACKDTIGFNLAAMDHVKQMMDARSDAPFKDAKAKLLEIRSQQAKRMASRGDTKMEKKRKKKQKKLEEGQHGHALF | failed
MVKCLSAHNKAPHVSVITPSYNSIRFIGETIVSVQNQSYENWEMIIVDDASTDESVTKIKEIIEGDSRIRLVSLKENIGAAKARNIAIQEARGRYIAFLDSDDIWLPHKLKTQLLFMEEMSVAFSYASYSLIDENGNGLNREVNVPKSVDYHCLAGNTIIGCLTVIIDREKIPHIEMPSVQPEDTALWLKLLHEGHEAKGIQQVLAKYRIVANSVSRNKIKAAFRYWKLLRDQKCLNAVQIFYYFSKYAYHAYRKNKINVVGKTQL | failed
MVKESGMASLLLENPYYGYRKPKDQLRSSLKNVSDLFVMGGALILESAALLHWLERDGFWPLGMTGISMGGHMASLAVTNWPKPIPLIPCLSWTTASSVFTTGVLSRAVNWRELEKQYATHTVYEEEIISMLEYCGTDSFRMGQEFVKNAPGSFDGLDLTQELLQSGQQVALRSSYSGRPASDQDSSVLMGRRERDGLDQMLSAVSSSAPHLDMLHAKSIACGSGQRQSLQRESLCFMKGVMDECTHIANFSVPVDPSLIIIVQAKEDAYVPRTGVRSLQEIWPGCEVRYLNGGHISAYLFKQGLFRQAIYDAYDRFLHKYSSL | not failed
MVKIEVAKPINFNRLITSKEAEVVSMRILNQPNSYISLFSLAKDEEITAEAMLGNRYYYCFNGNGEIFIENNKKTISNGDFLEITANHNYSIEARDNLKLIEIGEKIGDGNMENKTLKMLESASAFNLAEVVEYQEGKIVSKNLVAKPNLVMTIMSFWKGESLDPHKAPGDALVTVLDGEGKYYVDGKPFIVKKGESAVLPANIPHAVEAETENFKMLLILVKE | not failed
MVKKFKRVLVANRGEIAIRIFRACHELGIRTVAIYSEEDKLALFRTKADESYLIGQNKGPVDAYLNIDEIINLALKKGVDAIHPGYGFLSENSEFSRRCTEAGIEFIGPTGDMMDKLGDKINSKLAAKAAGVKTIPGVEKPIETEQQAIEFARTCGYPVMVKAAAGGGGRGMRIVEKEEDLIAACRSAKSEAKKAFGIEDIFIEKYLEGPKHIEVQVLGDKYGNIVHLYERDCSVQRRHQKVIELTPAVSMSEEKRLEICEDALKIARSIGYRSAGTLEFLLDKHGNHYFIEMNPRVQVEHTITEMVTGIDIVQSQILIAEGYKLNSPEVGINSQEDIHVNGYAIQCRITTEDPSNSFAPDTGKIDVYRTGSGFGIRLDGGNGFTGAVISPYYDSLLVKSTSWSRTFEDAIRKAIRAIKETYISGVKTNIDFLINVLNHETFRKGLCDTNFIANNPELFEITPRIDTELRVLKFIGEKVVNETHGHKIEVDVPSVPKYEIKEPLRGTKQILDEKGPKGLVEWIKDQDKLLLTDTTMRDAHQSLMATRLRTVDMVKIAKAESVLAKDLFSMEMWGGATFDTAYRFLKESPWERLERLRKRVPNVLFQMLLRGANAVGYKNYPDNVIREFIKQSSKSGIDVFRIFDSLNWVKGMEVAIDEVLNQGKVAEACMCYTGDILDTNRDKYTLNYYVNLAKEIEKSGAHILGIKDMSALLKPYAALKLIRALKNEISIPIHLHTHDTTGNGVATVLMAAHAGVDIADTAFNSMSGLTSQPALNSVVAALKNTDRDTKMDIGDLQKISDYWSTVRPVYSKFESGLKAVSAEIYKYEIPGGQYSNLKPQVESFGLGHRFEQVKEMYREVNIMLGDIVKVTPSSKMVGDLAIFMVQNELTSENILEKAKDMPFPDSVVSYFKGMMGQPKGGFPKELQKIVLKDEEAITCRPGELLPDEDFDKIRVRLKKENKIEPTDKDVISYALYPDVFEEYLKYKNEYGDLSRMGSDVFFHGLAEGEISELEIAEGKTLVVQLLHIGKLDKQGNRTLVFEVNGNRREIKIKDKVSSTKSEIVEEIVIADSSNKKEIGASIPGNVVKVFVKPGDKVKKGDSLMVIEAMKMETNVSVSEDGTVGGIFVKEGDQVQSGQLLVKLD | failed
MVKKGFLTGLLLFGIFFGAGNLIFPPALGVASGQDFWPAILGFCLSGVGLAIITLLLGTLTNGGYKTEMSEKFSPWFSLTFLVILYLTIGPLFAIPRTATVSFEIGVAPIVGHSPIALLCFTACFFAAAYYLAIRPNGILDSVGKILTPVFAFLILSLVVVGAIAYGNLESAKASADYAGKAFGSGVLAGYNTLDALAAVAFCLVATETLKKFGFKTKKEYLSTIWIVGIVTSLAFSILYIGLGFLGNKFPVPADILADPNVNKGAYVLSQASYKLFGNFGRYFLSIMVTLTCFTTTVGLIVSVSEFFDKNFRFGNYKLFATVFTLIGFLIANLGLNAVITFSVPVLTLLYPIVIVIVLIILINKWLPLSKKGMSLTIGLVTLVSFVEVLAGQWQEKTLTQLVGFLPFHTISMGWLVPMLIGIVFSLVLSDKQKGQAFDLEKFEG | failed
MVKKIGLSIMLLFFFLIIALPIYAWKIEPNLVHVNQVTLGKKNQREPLNVVQLSDIQVSEFYETKRLDKVIKKVNREKPDIIVFTGDLFDNYAKNPQQKEPMIEKLKQLQATIGKYAVWGNHDYGGGASAVYDEVMEASGFTVMKNQGETVTLADGRRLFIGGLDDSLLGNPSVSETLSYRETYDYALLMTHEPDVADAFVGTGTQLVLAGHSHGGQIWIPFYPITNVLAEKYTRGLYQLDQETQLYVNTGLGTTAIHARFGVIPEITHFTIYI | failed

Reference: a protein production outcome set (Wang et al. 2014)
